The source of these data is US10632208B2, “Peptide-mediated drug delivery across epithelial barrier” (Purdue Research Foundation, priority 2017, dated 2020).

Series [1] concerns NF-κB(p65). The series can be described thus: Confocal immunofluorescence of p65 localization in Caco-2 cells. It counts as cell-based, human. The settings on record: 30 min. The protocol:
For antibody labeling in cells, Caco-2 cells, were grown to 40-50% confluence in four-chambered slides (Millipore). At the end of the treatment, the cells were fixed with 3.7% formaldehyde in PBS for 20 min and permeabilized and blocked with PBS containing 0.3% Triton X-100 and 3% BSA (Sigma-Aldrich) for 1 h at room temperature and then incubated with respective antibodies overnight at 4° C. Following antibody incubation, the cells were washed with PBS (3 cycles, 5 min) and incubated with FITC or Alexa Fluor 555-conjugated secondary antibody for 2 h at room temperature. The nuclei were stained with DAPI (500 ng/ml; Cell signaling) and slides were mounted in ProLong antifade reagent (Cell Signaling).
All images were acquired using a Nikon A1R MP Multiphoton (Nikon) Confocal fluorescence microscope using a 60× oil immersion objective equipped with the Nikon Elements software (Nikon) at the Purdue Bioscience Imaging Facility. The X-Z and Y-Z cross-sections were produced by orthogonal reconstructions from z-stack scanning at 0.15 μm intervals taken with 60× objective in 5 μm thick paraffin embedded tissue section. Three-dimensional reconstructions were performed using Nikon elements software (Nikon).

In series [2] the test system is NF-κB(p65). The series can be described thus: Immunoblot of NF-κB activation in Caco-2 cytoplasmic and nuclear extracts. The class given is cell-based, human. As for the experimental part: To extract the proteins from Caco-2 cells, cells were seeded in 6-well plates for 14-21 days. Following treatment, the cells were washed, scraped from the bottom of 6-well plates, suspended in PBS, and pelleted by centrifugation. Total protein from Caco-2 cells was extracted using the M-PER Extraction Kit (Thermo Fisher Scientific). Detergent-insoluble (membrane) and detergent-soluble (cytosolic) proteins were isolated using a Mem-Per Eukaryotic Protein Extraction Kit (Thermo Fisher Scientific) while the cytosolic and nuclear proteins were extracted using NE-PER Extraction Reagent (Thermo Fisher Scientific). To extract proteins from ileal epithelial cells, the epithelial cell fraction from ileal tissues were isolated as described above and the detergent-insoluble and the detergent-soluble proteins were isolated using a Mem-Per Eukaryotic Protein Extraction Kit.
To extract total protein from intact bacterial cells, sample solvent buffer and sonication (3 cycles of […]) were used. To isolate the cell wall-associated proteins bacterial pellets were resuspended in 0.5 ml protein extraction buffer (0.5% SDS, 10 mM Tris at pH 6.9), and incubated at 37° C. for 30 min with agitation. The samples were centrifuged (14,000×g, 10 min, 4° C.), and the supernatants (containing cell wall-associated proteins) were retained. Halt proteases and phosphatase inhibitors (Thermo Fisher Scientific) were used during all of the protein extraction procedures. The protein concentrations were determined by BCA assay (Thermo Fisher Scientific), and separated on SDS-PAGE gels (10-12.5% polyacrylamide) and electro-transferred to polyvinylidene difluoride (PVDF) membrane (Millipore). The membranes were then blocked in 5% nonfat dry milk (NFDM) in 0.1 M Tris-buffered saline, pH 7.5 (TBS) containing 0.1% Tween 20 (TBST) for at least 1 h. All of the primary antibodies were diluted in 5% bovine serum albumin (BSA) or 5% NFDM in TBST and incubated overnight. Secondary antibodies (1:2000 in 5% NFDM in TBST) incubated for 1 h at 37° C., and a chemiluminescence method was performed using LumiGLO reagent (Cell Signaling). The membranes were exposed to X-ray films or visualized using the Chemi-Doc XRS system (Bio-Rad). To immunoprobe the same membrane with another antibody, the originally bound antibodies from the membranes were removed by incubating the membranes in Restore Western Blot Stripping Buffer (Thermo Fisher Scientific) according to the manufacturer's protocol. To compare the reaction intensities, the average band densities were determined using Quantity One software (Bio-Rad). Densitometry reports represent the mean±SEM after normalization to the loading control and is presented as % change of protein with the average for untreated cells (control) set at 100%. Immunoblots and densitometric reports are representative of 2-3 independent experiments.
A general note: Immunoblotting shows a protein as a band on a membrane.

For the next series, the system named is Caco-2 cells. The series can be described thus: Caco-2 cell viability assay (lactate dehydrogenase release). The settings on record: Caco-2 cells treated with purified recombinant LAP. It counts as cell-based, human. As for the experimental part: Caco-2 cell viability assay. To determine Caco-2 viability, cell culture supernatants from Caco-2 cells infected with WT, lap^−, lap^−lap^+, ΔinlA and ΔinlA inlA^+ strains (MOI 50, 2 h) grown on Transwell inserts or treated with the purified recombinant LAP for 24 or 48 h were assayed for lactate dehydrogenase release (Thermo Fisher Scientific). Two controls were included for calculation of percent cytotoxicity (LDH release). Low control consisted of supernatant from untreated Caco-2 cells with no exposure to bacteria. High control was from cells treated with 0.1% Triton X-100 for one minute.

The subject of another series is L. monocytogenes. The series can be described thus: Translocation of L. monocytogenes through polarized Caco-2 monolayers on Transwell filter-inserts. The class given is cell-based, Listeria monocytogenes. The settings on record: LAP 1 or 2 μg/mL, MOI 50. The protocol:
Caco-2 cells were grown as monolayers on Transwell inserts with 3.0 μm pores (Corning-Costar) for up to 14-21 days. TEER was measured to monitor the monolayer integrity (Millicells Voltmeter, Millipore). A TEER value of at least 200 Ω/cm^2 (±10) was used as the basal value to monitor the monolayer integrity. Bacterial cells were washed three times in PBS and resuspended in DMEM-FBS (10%) at a MOI of ˜50 and were added to the apical side of the Transwell system, and after 2 h incubation period at 37° C. in 5% CO2, the liquid was collected from the basal well, and then translocated bacteria were enumerated by plating (Burkholder and Bhunia, 2010). For analysis of FD4 flux, non-metabolizable 4 kDa FITC-labeled dextran (FD4; 5 mg/ml, Sigma-Aldrich) was added with bacteria (MOI, ˜50) resuspended in DMEM-FBS (10%) and added to the apical side. After 2 h incubation at 37° C. in 5% CO2, the liquid was collected from the basal well and fluorescence was measured (Em: 485 nm; Ex: 520 nm; Spectramax, Molecular Devices). For pharmacological inhibition treatments, PDTC (100 μM for 30 min pre-treatment; R&D Systems), Bay-11-7085 (10 μM for 30 min pre-treatment; Sigma-Aldrich), ML-9 (20 μM for 30 min pre-treatment; Sigma-Aldrich), PIK (150 μM, 30 min-pre-treatment and kept during 2-h infection) (Zolotarevsky et al., 2002), and Cytochalasin D (1 μg/mL for 1 h; Sigma-Aldrich) were used separately.
For re-association of externally added LAP to the lap^− mutant, bacteria were harvested from 1 ml of overnight grown culture, and the pellet was washed three times in PBS before the addition of 1 or 2 μg/mL of purified LAP. The mixture was incubated for 30 min at 30° C. with continuous shaking and then pelleted, washed five times in the PBS, resuspended in DMEM, and used in the aforementioned translocation assay.

Setting [3] is: Caco-2 cells, LAP 1 μg/ml, 30 min (FIG. 5D).
Where [4] appears, read: LAP 1000 ng/mL or TNF-α 10 ng/mL.
[5] abbreviates: shRNA vector control Caco-2 cells, LAP 1 μg/mL (FIG. 5B).

B1: LAP: Listeria adhesion protein, alcohol acetaldehyde dehydrogenase of Listeria monocytogenes, 866 aa, 94 kDa; recombinant, histidine-tagged form SEQ ID NO: 10 (protein)
chain: MAIKENAAQEVLEVQKVIDRLADNGQKALKAFESYNQEQVDNIVHAMALAGLDQHMPLAKLAVEETGRGLYEDKCIKNIFATEYIWNNIKNNKTVGVINEDVQTGVIEIAEPVGVVAGVTPVTNPTSTTLFKAIIAIKTRNPIIFAFHPSAQRCSSAAAKVVYDAAIAAGAPEHCIQWVEKPSLEATKQLMNHDKVALVLATGGAGMVKSAYSTGKPALGVGPGNVPAYIDKTAKIKRSVNDIILSKSFDQGMICASEQAVIVDKEVAKEVKAEMEANKCYFVKGAEFKKLESYVINPEKGTLNPDVVGKSPAWIANQAGFKVPEDTKILVAEIKGVGDKYPLSHEKLSPVLAFIEAANQAEAFDRCEEMLVYGGLGHSAVIHSTDKEVQKAFGIRMKACRIIVNAPSAQGGIGDIYNGFIPSLTLGCGSYGKNSVSQNVSATNLLNVKRIADRRNNMQWFKLPPKIFFEKYSTQYLQKMEGVERVFIVTDPGMGSFKYVDVVIEHLKKRGNDVAYQVFADVEPDPSDVTVYKGAELMKDFKPDTIIALGGGSAMDAAKGMWLFYEHPEASFFGLKQKFLDIRKRTFKYPKLGGKAKFVAIPTTSGTGSEVTPFAVITDKENNIKYPLADYELTPDVAIVDAQYVTTVPAHITADTGMDVLTHAIESYVSVMASDYTRGLSIRAIELVFENLRESVLTGDPDAREKMHNASALAGMAFANAFLGINHSLAHKIGPEFHIPHGRANAILMPHVIRYNALKPKKHALFPRYESFRADEDYARISRIIGFPAATTEEGVKSLVDEIIKLGKDVGIDMSLKGQNVAKKDLDAVVDTLADRAFMDQCTTANPKQPLVSELKEIYLEAYKGV
modifications: Listeria monocytogenes
For the molecule B1, the “localization of p65” value in the series with NF-κB(p65) [1] (Caco-2 cells, LAP 1 μg/mL or TNF-α 10 ng/mL) is “in the nucleus”. In addition, in the series with NF-κB(p65) [1] (Hsp60 knocked-down Caco-2 cells), the “localization of p65” value is “retained p65 within the cytoplasm”. In the series with NF-κB(p65) [1] (shRNA vector control Caco-2 cells), the “localization of p65” value was “nuclear translocation of p65”. Besides, in the series with NF-κB(p65) [2] (setting [3]), the “increase of IKK-β protein expression” value worked out at 53±2% and the “increase of p65 protein expression” value is given as 63±5%. Besides, the “protein expression levels of IKK-β and p65” value in the series with NF-κB(p65) [2] (Hsp60 knocked-down (hsp60::shRNA) Caco-2 cells, LAP 1 μg/mL) was “basal protein expression levels”. In the series on NF-κB(p65) [2] (LAP 1 μg/mL, 30 min), the “increase of IKKα in the cytosol relative to untreated cells” value was found to be 267±7%, the “increase of P-p65 in the nucleus relative to untreated cells” value amounted to 120±23% and the “increase of p65 in the nucleus relative to untreated cells” value came out at 218±32%. Also, in the series on NF-κB(p65) [2] (setting [4]), the “time of appearance of cytoplasmic phospho-IκBα (Ser32)” value was 15 min; the “time of increase in nuclear p65 and P-p65” value came out at 30 min. Also, in the series with NF-κB(p65) [2] (LAP 1000 ng/mL, 0-120 min), the “time by which most IκBα was degraded” value is given as ≤ 45 min and the “time of rapid degradation of IκBα” value is ≤ 15 min. In the series on NF-κB(p65) [2] (setting [5]), the “increase of IKK-β protein expression” value is on record as 52±8% and the “increase of p65 protein expression” value is 54±8%. Also, the “cytopathic or cytotoxic effects (LDH assay)” value in the series on Caco-2 cells is “without causing any cytopathic or cytotoxic effects”. For the same molecule, in the series on L. monocytogenes, the “translocation of the lap- strain after pre-incubation with exogenous purified LAP” value is recorded as “rescued the translocation defect”.
